The series concerns the molecule itself. Put plainly: SEC; Superdex S200 column, purified N proteins analysed immediately following purification; elution compared with molecular mass standards; monomer and tetramer peaks.

Substitutions are numbered along the chain they refer to.

From publication PMC3052533, “Amino acid changes within the Bunyamwera virus nucleocapsid protein differentially affect the mRNA transcription and RNA replication activities of assembled ribonucleoprotein templates” (The Journal of General Virology, 2011) come the findings set out here.

B1: Bunyamwera virus (BUNV) nucleocapsid (N) protein, wild type (natural protein)
chain: MIELEFHDVAANTSSTFDPEVAYANFKRVHTTGLSYDHIRIFYIKGREIKTSLAKRSEWEVTLNLGGWKITVYNTNFPGNRNNPVPDDGLTLHRLSGFLARYLLEKMLKVSEPEKLIIKSKIINPLAEKNGITWNDGEEVYLSFFPGSEMFLGTFRFYPLAIGIYKVQRKEMEPKYLEKTMRQRYMGLEAATWTVSKLTEVQSALTVVSSLGWKKTNVSAAARDFLAKFGINM
notes: nucleocapsid (N) protein of Bunyamwera virus, expressed from plasmid pET-BUN-N (Rodgers et al., 2006); predicted monomer mass 28.8 kDa; also called BUNV N protein; WT
On to B1, for which the “stoichiometry N” value is 4.

B2: BUNV N protein K179A (natural protein, Bunyamwera virus, UniProt P16495 1-233, looked up)
chain: B1 chain with K179A
notes: nucleocapsid (N) protein of Bunyamwera virus, from modified plasmid pET-BUN-N, single alanine substitution
With B2, the binding result is “binds”.

B3: BUNV N protein R94A (natural protein, Bunyamwera virus, UniProt P16495 1-233, looked up)
chain: B1 chain with R94A
notes: nucleocapsid (N) protein of Bunyamwera virus, from modified plasmid pET-BUN-N, single alanine substitution; monomers and tetramers equally abundant
Consider B3, for which the “stoichiometry N” value stood at 4.

B4: BUNV N protein R40A (natural protein, Bunyamwera virus, UniProt P16495 1-233, looked up)
chain: B1 chain with R40A
notes: as for B2
Regarding B4, the binding result is “binds”.

B5: BUNV N protein R101A (natural protein, Bunyamwera virus, UniProt P16495 1-233, looked up)
chain: B1 chain with R101A
notes: as for B2
Regarding B5, the binding result is “binds”.

B6: BUNV N protein K55A (natural protein, Bunyamwera virus, UniProt P16495 1-233, looked up)
chain: B1 chain with K55A
notes: as for B2
Consider B6, for which the binding result was “binds”.

B7: BUNV N protein K50A (natural protein, Bunyamwera virus, UniProt P16495 1-233, looked up)
chain: B1 chain with K50A
notes: as for B2
With B7, the binding result is “binds”.
